Reference: patent US20250388683A1

Molecular target: canine IL-31 (canine)

Row | IC50 (read off the curve); STAT3-SEAP reporter, canine IL-31 stimulation | Substance
1 | 1 to 10 nM | Cytopoint® (Lokivetmab), a canine anti-IL31 (Cas number: 1533403-95-0) (antibody)
2 | 3 nM | Tirnovetmab, a canine anti-IL31 (Cas number: 2364504-80-1) (antibody)
